Target: TesS thioesterase (SP1408) of Streptococcus pneumoniae, C-terminal FLAG tag (Streptococcus pneumoniae)
Assay: SEC

TesS thioesterase (SP1408) of Streptococcus pneumoniae, C-terminal FLAG tag (enzyme)
stoichiometry N: 2

From article PMC4415690
